The target of data set [1] is avian polyomavirus (APV) major capsid protein VP1 (avian polyomavirus (APV), strain BFDV-5) (UniProt P13891). The data set can be described thus: cryo-EM structure.
Data set [2] has the same target. The data set is described as follows: negative-stain electron microscopy.
The data set “cryo-EM structure” concerns the molecule itself. The data set can be described thus: cryo-EM structure.

These results are taken from PMC3057058 (Virology, 2011).

Regarding “avian polyomavirus (APV) major capsid protein VP1 (from UniProt P13891 1-343) (natural protein)”, the stoichiometry N in data set [1] and in data set [2] was 5 each time.

B1: simian virus 40 (SV40) wild-type VP1, in virus-like particles (natural protein)
chain: APTKRKGSCPGAAPKKPKEPVQVPKLVIKGGIEVLGVKTGVDSFTEVECFLNPQMGNPDEHQKGLSKSLAAEKQFTDDSPDKEQLPCYSVARIPLPNINEDLTCGNILMWEAVTVKTEVIGVTAMLNLHSGTQKTHENGAGKPIQGSNFHFFAVGGEPLELQGVLANYRTKYPAQTVTPKNATVDSQQMNTDHKAVLDKDNAYPVECWVPDPSKNENTRYFGTYTGGENVPPVLHITNTATTVLLDEQGVGPLCKADSLYVSAVDICGLFTNTSGTQQWKGLPRYFKITLRKRSVKNPYPISFLLSDLINRRTQRVDGQPMIGMSSQVEEVRVYEDTEELPGDPDMIRYIDEFGQTTTRMQ
On to B1, for which the binding result in the data set “cryo-EM structure” is recorded as “binds”.
